Results on 4 molecules are retold here after publication PMC12297659, “In situ structure of the mouse sperm central apparatus reveals mechanistic insights into asthenozoospermia” (Cell Research, 2025).

What all share (test): cryo-EM structure; in situ cryo-electron tomography with subtomogram averaging of about 200 nm cryo-FIB lamellae of wild-type mouse sperm; local maps of 5.5 Å to 18 Å; AlphaFold2 models fitted into the density
The target of series [1] is GMCL1 (BTBD16) (mouse (endogenous in sperm)) (UniProt Q920G9).
In series [2] the target is SPATA17 (mouse (endogenous in sperm)) (UniProt Q9D552).
SPATA17 (mouse (endogenous in sperm)), sequence (Q9D552 whole entry): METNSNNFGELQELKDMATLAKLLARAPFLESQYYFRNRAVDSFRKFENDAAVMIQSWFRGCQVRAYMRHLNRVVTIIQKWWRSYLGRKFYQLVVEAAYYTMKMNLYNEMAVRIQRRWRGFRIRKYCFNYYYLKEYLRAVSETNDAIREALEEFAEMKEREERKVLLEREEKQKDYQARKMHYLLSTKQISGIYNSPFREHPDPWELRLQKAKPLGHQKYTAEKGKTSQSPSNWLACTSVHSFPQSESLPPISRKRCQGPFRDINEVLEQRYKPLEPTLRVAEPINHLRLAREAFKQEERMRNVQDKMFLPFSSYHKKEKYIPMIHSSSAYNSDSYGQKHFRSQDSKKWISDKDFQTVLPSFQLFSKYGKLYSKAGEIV
Series [3] deals with the molecule itself.

The stoichiometry N is the number of molecules, sites or subunits per partner or assembly.

The molecule “GMCL1 (BTBD16) (from UniProt Q920G9 1-524) (natural protein)” had a stoichiometry N in series [1] of 2.

Regarding “calmodulin (CaM) (from UniProt P0DP26 1-149) (natural protein)”, in series [2], the stoichiometry N is 3.

B1: SPAG16 (natural protein, mouse (endogenous in sperm), UniProt Q8K450 1-639, looked up)
chain: MAAPSGVPPLRVLEELGIGLSPTGEVTEAVTSEGAYYLEQVTITETSEDECEYEEIPDDNFSIPEGEEDLEKAIHIIGEQARDIHILEQQTILPARNVMQEAIEDFLCNFLIKMGMTRTLDCFQAEWYELIQKKGSDFKGLGNVPDVYSQVMLLETENKNLKKELKHFKQAAEKAKEDLLRTQKERDFHRMHHKRIVQEKNKLIADLKGLKLHYASYEPTIRVLHEKHHALLKEKMLTSLERDRAVGKISGLQATLKNIDMGHIQVPVIKGSYESASITRESGDRAGHSCEKENSSEGPTQKSLREAREEVGYKSKLKNEKKDSEFPVDMQPDPNVTSCTENVSAAKFDYKLNNIFRLHELPVSCIVMHPCRDYLISCSEDRLWKMVGLPQGNVLLTGSGHTDWLSGCCFHPSGSKLATSSGDSTIKLWDLNKGECTLTLEGHNHAVWSCTWHSCGDFVASASLDMTSKIWDVNSERCRYTLYGHTDSVNSIEFFPFSNILLTASADKTLSVWDARTGKCEQSLYGHMHSVNDATFTPRGHIIASCDARGVTKLWDFRKLIPIVSIDVGPSSGNEVNFDQSGRVLAQASANGIIHLLDLKSGQIHKLVGHESEVHSVVFSHLGENLYSGGSDGTIRLWI
notes: SPAG16, mouse, with a coiled-coil domain and a C-terminal β-propeller domain; Adjacent copies dimerise through the coiled-coil domain; also called PF20 homolog; source: endogenous, in intact mouse sperm (cryo-FIB lamellae)
For the molecule B1, the “stoichiometry N” value in series [3] stood at 2.

B2: CFAP70 (natural protein, mouse (endogenous in sperm), UniProt D3YVL2 1-1141, looked up)
chain: MDQTSSTTKIVHITVTNGYDLKGFKGDTPVTFVRAEFNQTVLGDSSKVTVSPEGTAKYNFTSNIDLSPDGGGALDDLAHKPLFLTVTEVLPKEKKQKDEKTLILGQAVVDLLPLLEGEESFETTVPLHPVPGSPLETPLPGSKQCSLDVKVFVAEPLLTPAQVSASNLLKVTLEAAYSVPESFIPVGPQQNYMVGLQVPSVGEKDYTMIFKNGNLKLGGEKEPVPRPKKWPIANILAPGASNIPDEFIVGGPYEEEEGELNHPEDREFRNQAECTKKRIVWDLESRCFLHPFAVASFQKRIADCRLWPVEITRVPLVVMPKAKPGKLEKIDDENQLSFHGVAYINMVPLLYPGVKKIRGAFHVYPYLDGTVFEKTKCLFSLFRDTGHHLVQNNKAGGLNSPLSKPLSKNLKEEKPGKDKDTEGRPRLGELQAPSIKSQSSDTPLESEAPLSHNLEGQQYIEAGTYIVLEIQLEKALVPKRMPEELARRVKEMIPPRPPLTRRTGGAQKAVSDYHTQIKSISRAILNEYYRMFGKQGPKLESDIDNETMEERKCQLNYELNCSGKYFAFKEQLKHAVVKIVREKYLKTTAFESQEELQTFISELYVFLVDQMHVALNQAVPDDVPSSTSTIQTSSEQLRLFAFEAEVNEKFEIAAMYYEERLVREPQNLENWLDYGAFCLLTEDNIKAQECFRKALSLNESHVDSLLLCGVLAILLENYEQAEIFFEDATCLEPTNVIAWTLLGLFYEIQNNDIRMEMAFHEAFKQLQARTLQTKLKSTVTIENMEEGVKVEPSFGPWGVVQESTTAIKTEGLSGMRPQSSHQLSPHTNMELHPQPQGPNTALSSLDEFLEESPKAQSESQEPMATGQPLEPSLVQRSSNALLKELTSKKDISKCQDSSAFSPPTQHVIAQPPVTIFMETIRFLMKVNAVQFVHRVLAHELLCPQGGPSCEYYLVLAQTHLLKKDFAKTEEYLQQAAQMDYLNPNVWGVKGHLYFLSGNHAEAKECYERTISFVVDASEMHFIFLRLGHIYLEEKEYENAKRTYMHACKRSPSCLTWLGLGIACYRLEELTEAEDALSEANALNNCNAEVWAYLALVCLKVGRQLEAEQAYKYTIKLKLKDQALLEEIHTVQEMVGFGNPSF
notes: CFAP70, mouse; The CFAP70 dimer was predicted with AlphaFold2 Multimer before fitting; source: endogenous, in intact mouse sperm (cryo-FIB lamellae)
As for B2, the “stoichiometry N” value in series [3] turned out to be 2.
